# Source: US9200265B2, “Anti-cocaine compositions and treatment” (priority 2006, dated 2015)
# Positions count from the first letter of the chain named. Names may count otherwise. Read-outs that look alike come from different tables or passages of the source.
# B1: Ala328W/Y332A: cocaine hydrolyzing enzyme of Sun et al., 2002a (genetically engineered BChE) (protein, UniProt P06276 29-602, looked up, variant A328W Y332A)
# Cholinesterase: EDDIIIATKNGKVRGMNLTVFGGTVTAFLGIPYAQPPLGRLRFKKPQSLTKWSDIWNATKYANSCCQNIDQSFPGFHGSEMWNPNTDLSEDCLYLNVWIPAPKPKNATVLIWIYGGGFQTGTSSLHVYDGKFLARVERVIVVSMNYRVGALGFLALPGNPEAPGNMGLFDQQLALQWVQKNIAAFGGNPKSVTLFGESAGAASVSLHLLSPGSHSLFTRAILQSGSFNAPWAVTSLYEARNRTLNLAKLTGCSRENETEIIKCLRNKDPQEILLNEAFVVPYGTPLSVNFGPTVDGDFLTDMPDILLELGQFKKTQILVGVNKDEGTWFLVAGAPGFSKDNNSIITRKEFQEGLKIFFPGVSEFGKESILFHYTDWVDDQRPENYREALGDVVGDYNFICPALEFTKKFSEWGNNAFFYYFEHRSSKLPWPEWMGVMHGYEIEFVFGLPLERRDNYTKAEEILSRSIVKRWANFAKYGNPNETQNNSTSWPVFKSTEQKYLTLNTESTRIMTKLRAQQCRFWTSFFPKVLEMTGNIDEAEWEWKAGFHRWNNYMMDWKNQFNDYTSKKESCVGL
# B2: T172R: mutant CocE polypeptide, SEQ ID NO: 25 (protein)
# chain: MVDGNYSVASNVMVPMRDGVRLAVDLYRPDADGPVPVLLVRNPYDKFDVFAWSTQSTNWLEFVRDGYAVVIQDTRGLFASEGEFVPHVDDEADAEDTLSWILEQAWCDGNVGMFGVSYLGVTQWQAAVSGVGGLKAIAPSMASADLYRAPWYGPGGALSVEALLGWSALIGRGLITSRSDARPEDAADFVQLAAILNDVAGAASVTPLAEQPLLGRLIPWVIDQVVDHPDNDESWQSISLFERLGGLATPALITAGWYDGFVGESLRTFVAVKDNADARLVVGPWSHSNLTGRNADRKFGIAATYPIQEATTMHKAFFDRHLRGETDALAGVPKVRLFVMGIDEWRDETDWPLPDTAYTPFYLGGSGAANTSTGGGTLSTSISGTESADTYLYDPADPVPSLGGTLLFHNGDNGPADQRPIHDRDDVLCYSTEVLTDPVEVTGTVSARLFVSSSAVDTDFTAKLVDVFPDGRAIALCDGIVRMRYRETLVNPTLIEAGEIYEVAIDMLATSNVFLPGHRIMVQVSSSNFPKYDRNSNTGGVIAREQLEEMCTAVNRIHRGPEHPSHIVLPIIKR
# modifications: Mutant CocE polypeptide
# B3: S159A (protein)
# chain: B2 chain with S159A, R172T
# modifications: Mutant CocE polypeptide
# Experiments:
# CocE [1] = biological target: T1, CocE (Rhodococcus sp., UniProt Q9L9D7); assay: Stabilization against 37° C.-induced formation of high molecular weight CocE aggregates (gel); assay type: physicochemical, Rhodococcus sp. MB 1; conditions: for 37° C.-induced formation of high molecular weight CocE aggregates: 0.1 mg/ml enzyme, mM range
# T1 construct: generating a full-length CocE gene encoding the T172R mutation; His6 (C); made in house; host or cells: E. coli (pET-22b(+))
# Protocol: (§1) Plasmids containing the mutations were transformed into E. coli BL21 cells and IPTG-induced enzyme was purified on Ni-Agarose. Expressed proteins were then tested for enzymatic activity and for thermostability at 37° C. Enzyme activity was measured using the spectrophotometric assay as described in Example 1. Thermostability was also tested via the spectrophotometric assay by pre-incubation of both wild-type and mutants at 37° C. for various times. Additionally, the nature of the thermo-instability of both the wild-type and T172R mutant was analyzed by polyacrylamide gel electrophoresis under denaturing and non-denaturing conditions. Briefly, mutant and wild-type enzyme at 0.1 mg/ml were incubated at 37° C. for various time-points, cooled to 4° C., mixed with SDS-loading dye containing-mercaptoethanol and run on 10% SDS-PAGE gels (denaturing conditions) or run on native 10% polyacrylamide gels (non-denaturing conditions) at 4° C. Gels were fixed with 10% methanol, 7% acetic acid for 30 minutes, and then stained with Sypro-Ruby protein gel stain (Molecular Probes, Invitrogen) for 3 hours. Protein staining was visualized under UV-light using an AlphaImager™ 3400 (Alpha Innotech). Finally, the exact melting temperature of both the wild-type and T172R mutant were determined by circular dichroism using a JASCO-810 spectropolarimeter driven by a JASCO V500/FP-750 analysis program for Windows. The CD spectra were measured in millidegrees and normalized against PBS buffer.
# Cocaine esterase (CocE) cleaves cocaine to produce Benzoic acid and Ecgonine methyl ester. Briefly, alternative substrates and inhibitors of cocaine, as well as compounds able to thermostabilize the enzyme, were investigated generally by substituting amide and thiol analogues at the reactive ester bond, or removing the bond (for inhibitors), substituting benzoyl analogues in place of the benzoic acid leaving group, and/or removing or altering the methyl-ester group on the ecgonine portion of the molecule. As discussed below, it was determined that some substrates, products, and inhibitors stabilized thermal denaturation of wild type CocE, as well as prevented thermally-induced aggregation in gel electrophoresis.
# Cocaine is the natural substrate of Cocaine esterase (CocE). Cocaine cleavage was monitored by a drop in absorbance at 240 nm. Cocaine (mM range) prevented 37° C.-induced formation of high molecular weight CocE aggregates (0.1 mg/ml enzyme concentrations) (see, e.g., FIG. 33). Cocaine (uM quantities) stabilized 37° C.-induced activity loss (see, e.g., FIG. 34), although the mechanism of this stabilization is complicated due to substrate inhibition at higher concentrations.
# [2] = test system: WIN 35065-2 induced toxicity; assay: WIN 35065-2 induced lethality in rats; conditions: i.p., rats
# CocE [3] = biological target: T1, CocE; assay: Inhibition of CocE (cleavage of 4-nitrophenyl acetate); assay type: biochemical, Rhodococcus sp. MB 1
# Protocol: Benzoic acid prevented 37° C.-induced formation of high molecular weight CocE aggregates (0.1 mg/ml enzyme concentrations) (see, e.g., FIG. 35). Benzoic acid (uM quantities) stabilized 37° C.-induced activity loss (see, e.g., FIG. 36), although the mechanism of this stabilization is complicated due to substrate inhibition at higher concentrations.
# CocE catalyzes the cleavage of 4-nitrophenyl acetate (4NPA) to 4-nitrophenol (4NP) and acetate. The cleavage reaction was monitored by observation of product formation at 400 nm. Both 4NP and 4NPA (mM range) prevented 37° C.-induced formation of high molecular weight CocE aggregates (0.1 mg/ml enzyme concentrations).
# [4] = against (-) cocaine; cited from earlier work
# [5] = test system: cocaine-induced lethality; assay: Rodent model of acute cocaine toxicity (convulsions and lethality) in rats
# [6] = Cocaine spectrophotometric assay (240 nm), Michaelis-Menten kinetics
# [7] = Low-UV CD spectra melt with CCA deconvolution; assay type: physicochemical
# Protocol: Low-UV CD spectra data were obtained using an Aviv Spectropolarimeter Mode 400, with the help of Norma Greenfield, UMDNJ, using a 5-cell holder and 0.2 mg/ml protein concentrations. Raw data values obtained were blanked on control PBS, smoothed, and deconvoluted using the CCA algorithm as described by A. Perczel, K. Park, and G. D. Fasman, [Analysis of the circular dichroism spectrum of proteins using the convex constraint algorithm: a practical guide. Analytical Biochemistry 203, 83-93 (1992).] This algorithm finds the minimum number of curves needed to reconstruct a data set, and expresses the percentage each curve contributes to the data set as a function of temperature.
# Below is presented a low UV CCA denconvolution analysis of CocE WT and 4 mutants, obtained in a single CD spectra melt using a 5-cell holder. The experiment was performed over the period of 8 hours, from 0-80° C.
# Temperature dependent melting was observed between the wavelengths tested (200-250 nm), and the smoothed spectra for each mutant are shown in FIG. 29. […] Dose response analysis was used to approximate the temperature at which the initial spectra melts (1), the formation and melt of the intermediate state (2), and the accumulation of the fully melted protein (3).
# [8] = Non-denaturing polyacrylamide gel electrophoresis after incubation at 37° C. (aggregation); assay type: physicochemical; conditions: non-denaturing gels, 0.1 mg/ml
# Protocol: as §1, with “Protein staining was visualized under UV-light using an AlphaImager™ 3400 (Alpha Innotech).” left out
# [9] = Melting temperature by circular dichroism (near-UV); assay type: physicochemical
# Protocol: as §1
molecule,measurement,setting,value
"CC(=O)Oc1ccc([N+](=O)[O-])cc1 [4NPA, 4-nitrophenyl acetate]",37° C.-induced formation of high molecular weight CocE aggregates,CocE [1],prevented
"COC(=O)[C@H]1[C@@H](c2ccccc2)C[C@@H]2CC[C@H]1N2C [WIN-35065-2, reference compound]",LD100,[2],560 mg/kg
"O=[N+]([O-])c1ccc(O)cc1 [4NP, 4-nitrophenol]",37° C.-induced formation of high molecular weight CocE aggregates,CocE [1],prevented
OB(O)c1ccccc1 [Phenylboronic acid],EC50,CocE [1],200 nM
same,Ki,CocE [3],250 nM
B1,Kcat,[4],2.57 s⁻¹
same,Km,[4],18 µM
B2,duration of prophylactic effects,"[5]; 0.32 mg given 1, 10, 30, 60 minutes before 320 mg/kg cocaine",longer lasting than the wild-type CocE
same,lethality,"[5]; 0.32 mg i.v. one minute after 1 g/kg cocaine i.p., rats",about 70%
same,Km,[6]; 40 min @ 37° C.,78.8 µM
same,Km,[6]; no preincubation,88.2 µM
same,#3 formation,[7]; accumulation of the fully melted protein,56.85 °C
same,#2 formation,[7]; formation of the intermediate state,38.11 °C
same,#1 melt,"[7]; initial spectra melts, 0.2 mg/ml",39.22 °C
same,#2 melt,[7]; melt of the intermediate state,54.56 °C
same,half-life at 37° C. relative to the wildtype,[8],~8 ×
same,increased melting temperature compared to the wild-type CocE,[9],5 degrees
same,detectable denaturation beginning,[9]; near-UV CD,approximately 28 °C
same,melting temperature,"[9]; near-UV CD (260-320 nm), curve-fitting",41.43 °C
B3,Km,[6]; 40 min @ 37° C.,15.7 µM
same,Km,[6]; no preincubation,43.6 µM
